Assay results: paper PMC7540344
Each block holds one substance with its values, some of them ahead of it.

Key:
[1] = biological target: YC‐St14‐3‐3f; experiment: bimolecular fluorescence complementation (BiFC); details: random fields from maximum intensity projections (n ≥ 10); opposing half-leaves, same imaging conditions; read off a plot
[2] = biological target: YC‐St14‐3‐3a; experiment: bimolecular fluorescence complementation (BiFC); details: random fields from maximum intensity projections (n ≥ 10); opposing half-leaves, same imaging conditions; read off a plot
[3] = biological target: YC‐StFDL1a (UniProt A0A1E1F9A2); experiment: bimolecular fluorescence complementation (BiFC); details: random fields from maximum intensity projections (n ≥ 10); opposing half-leaves, same imaging conditions; read off a plot
[4] = biological target: YC‐StFD (UniProt A0A1E1F9A3); experiment: bimolecular fluorescence complementation (BiFC); details: random fields from maximum intensity projections (n ≥ 10); opposing half-leaves, same imaging conditions; read off a plot
[5] = biological target: YC‐StFDL1a (Solanum tuberosum cv. Desiree)
[6] = biological target: YC‐StCEN; experiment: bimolecular fluorescence complementation (BiFC); details: random fields from maximum intensity projections (n ≥ 10); opposing half-leaves, same imaging conditions; read off a plot

Sequence of UniProt A0A1E1F9A3 (A0A1E1F9A3 entry or part of it): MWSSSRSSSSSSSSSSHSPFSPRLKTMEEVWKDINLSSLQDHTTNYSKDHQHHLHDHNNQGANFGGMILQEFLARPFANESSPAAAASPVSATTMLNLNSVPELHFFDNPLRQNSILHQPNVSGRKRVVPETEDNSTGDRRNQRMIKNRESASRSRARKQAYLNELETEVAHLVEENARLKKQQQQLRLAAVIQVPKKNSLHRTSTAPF
Sequence of UniProt A0A1E1F9A2 (A0A1E1F9A2 entry or part of it): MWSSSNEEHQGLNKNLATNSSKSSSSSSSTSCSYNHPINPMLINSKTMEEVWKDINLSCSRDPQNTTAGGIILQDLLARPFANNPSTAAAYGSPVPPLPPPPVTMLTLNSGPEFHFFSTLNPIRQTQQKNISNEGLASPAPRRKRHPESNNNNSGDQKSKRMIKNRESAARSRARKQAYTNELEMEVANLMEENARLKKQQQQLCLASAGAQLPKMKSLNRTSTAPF

ratio to parent [1]: 1.2
ratio to parent [2]: 1.3
ratio to parent [3]: 2.8
ratio to parent [4]: 2.7
Substance: YN‐StCEN R64K; P96L; F103A; R132K

luciferase activity of the p6A::LUC reporter (2.64 kb StSP6A promoter) in N. benthamiana leaves co-expressing StSP6A and estradiol-induced StFDL1a, against the reporter alone [5]: 3 fold
Substance: StSP6A (tuberigen, FT orthologue of potato), 35S-driven GFP fusion (natural protein)

ratio to parent [6]: 3.4
Substance: YN‐StFDL1a (from UniProt A0A1E1F9A2) T224A
